Source: paper PMC7857400 (Science (New York, N.y.), 2020)
Numbering of substitutions follows the chain as printed.

Assays:
[1] = target: T1, SARS-CoV-2 spike protein receptor binding domain (RBD) (SARS-CoV-2, UniProt P0DTC2); test: SPR; conditions: both partners purified
[2] = target: T1, SARS-CoV-2 spike protein receptor …; test: cell-based or functional assay

B1: Nb20 (VHH)
VHH: QVQLVESGGGLVQAGGSLRLSCAVSGAGAHRVGWFRRAPGKEREFVAAIGASGGMTNYLDSVKGRFTISRDNAKNTIYLQMNSLKPQDTAVYYCAARDIETAEYIYWGQGTQVTVSS
- Kd [1]: 0.0104 nM
- IC50 of neutralisation, pseudotyped SARS-CoV-2 (luciferase reporter); RBD-hACE2 is the pair interfered with [2]: 0.102 nM

B2: Nb21 (VHH)
VHH: B1 VHH with A27L, S52N, M55N, I105T
- IC50 of neutralisation, pseudotyped SARS-CoV-2 (luciferase reporter); RBD-hACE2 is the pair interfered with [2]: 0.045 nM
